Source: patent US6716960B2, “Mch3, a novel apoptotic protease, nucleic acids encoding and methods of use” (Idun Pharmaceuticals, Inc., priority 1995, dated 2004)
Read-outs that look alike come from different tables or passages of the source.

Assays:
[1] = target: T1, Mch3α (Homo sapiens, UniProt P55210); experiment: Continuous fluorometric assay of recombinant Mch3α with DEVD-AMC substrate; format: biochemical
T1 construct: This assay employs Mch3 polypeptide expressed in an active, processed form recombinantly in E. coli; becomes active following proteolytic cleavage into two subunits of approximately 17 kD (p17) and 12 kD (p12); GST (N, cleaved yes); made in house; host or cells: E. coli (DH5α), pGEX-2T; bacterial lysates
T1 sequence (P55210 24-198 limits assumed): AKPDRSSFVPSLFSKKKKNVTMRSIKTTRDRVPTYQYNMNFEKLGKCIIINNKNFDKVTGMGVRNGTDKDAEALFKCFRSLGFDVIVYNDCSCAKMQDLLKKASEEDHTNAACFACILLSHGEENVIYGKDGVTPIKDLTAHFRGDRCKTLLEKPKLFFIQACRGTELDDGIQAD
T1 sequence (P55210 207-303 limits assumed): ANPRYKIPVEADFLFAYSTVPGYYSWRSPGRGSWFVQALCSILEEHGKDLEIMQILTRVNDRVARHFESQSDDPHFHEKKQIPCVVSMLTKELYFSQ
Procedure: The kinetic properties of the bacterially expressed recombinant Mch3α and CPP32 were determined using the tetrapeptide substate DEVD-AMC in a continuous fluorometric assay. The DEVD-AMC substrate is the poly(ADP-ribose)polymerase (PARP) cleavage site P1-P4 tetrapeptide (Nicholson et al., Nature 376:37-43 (1995)). Briefly, activity of Mch3α and CPP32 was measured using bacterial lysates in ICE buffer (25 mM HEPES, 1 mM EDTA, 5 mM DTT, 0.10% CHAPS, 10% sucrose, pH 7.5) at room temperature (24-25° C.).

[2] = target: T2, CPP32 (Homo sapiens, UniProt P42574); experiment: Continuous fluorometric assay of recombinant CPP32 with DEVD-AMC substrate; format: biochemical; settings: for Km: recombinant CPP32, bacterial lysate, ICE buffer pH 7.5, 24-25° C., substrate = label
T2 construct: CPP32 is cleaved at Asp28 and Asp175 to generate two polypeptides of molecular masses of 17 kDa (p17) and 12 kDa (p12); GST (N, cleaved yes); made in house; host or cells: E. coli; bacterial lysates
T2 sequence (P42574 29-175 limits assumed): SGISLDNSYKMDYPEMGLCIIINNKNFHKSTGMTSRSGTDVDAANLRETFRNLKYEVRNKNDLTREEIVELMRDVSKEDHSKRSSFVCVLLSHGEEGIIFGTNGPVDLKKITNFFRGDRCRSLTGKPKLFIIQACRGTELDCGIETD
T2 sequence (P42574 176-277 limits assumed): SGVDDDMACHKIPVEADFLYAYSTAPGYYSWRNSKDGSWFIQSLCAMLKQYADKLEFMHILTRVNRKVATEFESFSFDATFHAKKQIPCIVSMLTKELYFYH

[3] = target: T2, CPP32; settings: purified human CPP32, reported by Nicholson et al.; cited from earlier work
[4] = test system: Sf9 cells; experiment: Induction of apoptosis in Sf9 cells infected with recombinant baculoviruses; settings: for Induction of apoptosis: expressed separately in Sf9 cells

CC(=O)N[C@@H](CC(=O)O)C(=O)N[C@@H](CCC(=O)O)C(=O)N[C@H](C(=O)N[C@H](C=O)CC(=O)O)C(C)C [DEVDaldehyde, DEVD-CHO]
Ki [1]: 1.8 nM

CC(=O)N[C@@H](Cc1ccc(O)cc1)C(=O)N[C@H](C(=O)N[C@@H](C)C(=O)N[C@H](C=O)CC(=O)O)C(C)C [YVADaldehyde, YVAD-CHO]
Ki [1]: > 10000 nM | Ki [2]: 8.5 µM

DEVD-AMC [DEVDamc]
Km ([1]; bacterial lysate, ICE buffer pH 7.5, 24-25° C., substrate = label): 51 µM | Km [2]: 13 µM | Km [3]: 9.7 ± 1 µM

YVADamc: YVAD tetrapeptide amc substrate listed in Table I
Km [2]: > 500 µM

B1: truncated Mch3α (amino acids 1-198): truncated Mch3α that encodes only the p20 subunit (protein)
chain: MADDQGCIEEQGVEDSANEDSVDAKPDRSSFVPSLFSKKKKNVTMRSIKTTRDRVPTYQYNMNFEKLGKCIIINNKNFDKVTGMGVRNGTDKDAEALFKCFRSLGFDVIVYNDCSCAKMQDLLKKASEEDHTNAACFACILLSHGEENVIYGKDGVTPIKDLTAHFRGDRCKTLLEKPKLFFIQACRGTELDDGIQAD
Induction of apoptosis [4]: unable to induce apoptosis

B2: truncated Mch3α (amino acids 199-303): truncated Mch3α that encodes only the p12 subunit (protein)
chain: SGPINDTDANPRYKIPVEADFLFAYSTVPGYYSWRSPGRGSWFVQALCSILEEHGKDLEIMQILTRVNDRVARHFESQSDDPHFHEKKQIPCVVSMLTKELYFSQ
Induction of apoptosis [4]: unable to induce apoptosis

B3: Mch3α: full length apoptotic cysteine protease, 303 amino acids (SEQ ID NO: 2), expressed from recombinant baculovirus (protein)
chain: MADDQGCIEEQGVEDSANEDSVDAKPDRSSFVPSLFSKKKKNVTMRSIKTTRDRVPTYQYNMNFEKLGKCIIINNKNFDKVTGMGVRNGTDKDAEALFKCFRSLGFDVIVYNDCSCAKMQDLLKKASEEDHTNAACFACILLSHGEENVIYGKDGVTPIKDLTAHFRGDRCKTLLEKPKLFFIQACRGTELDDGIQADSGPINDTDANPRYKIPVEADFLFAYSTVPGYYSWRSPGRGSWFVQALCSILEEHGKDLEIMQILTRVNDRVARHFESQSDDPHFHEKKQIPCVVSMLTKELYFSQ
Cells undergoing apoptosis ([4]; expression in Sf9 cells, 42-48 h postinfection): approximately 50%
